Data on three molecules can be found in patent publication US20130224187A1 (Alexion, published 2013).

For one assay, the target named is T1, human C5a (human, UniProt P01031 678-751).
T1 construct: also called hC5a; free human C5a
T1 sequence: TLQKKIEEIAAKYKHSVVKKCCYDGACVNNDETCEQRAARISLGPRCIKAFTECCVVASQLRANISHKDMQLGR
As to the kind of experiment: Biolayer interferometry (Octet). A general note: Biolayer interferometry detects binding as a change in optical thickness at a sensor tip.

For a further assay, the target named is T2, human C3a (human, UniProt P01024 672-748).
T2 construct: domain: C3a
T2 sequence (P01024 672-748 limits assumed): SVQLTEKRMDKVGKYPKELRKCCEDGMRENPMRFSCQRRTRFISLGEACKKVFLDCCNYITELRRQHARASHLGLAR
As to the kind of experiment: Biolayer interferometry (Octet); biotinylated antigen on streptavidin tip, IgG in solution.

A further assay concerns the target T3, human full-length C5 (human, UniProt P01031 19-673; P01031 678-1676).
T3 construct: mature; also called uncleaved human C5; native, fully-folded human C5
Described as above.

A further assay deals with T4, human C4a (human, UniProt P0C0L4 680-756).
T4 construct: domain: C4a
T4 sequence (looked up): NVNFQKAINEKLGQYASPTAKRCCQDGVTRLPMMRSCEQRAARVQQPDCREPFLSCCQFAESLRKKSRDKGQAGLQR
The description is as above.

The target of the next assay is T5, human C5a desarg (human, UniProt P01031 678-750).
T5 construct: also called desarginated C5a; hC5a desarg
T5 sequence: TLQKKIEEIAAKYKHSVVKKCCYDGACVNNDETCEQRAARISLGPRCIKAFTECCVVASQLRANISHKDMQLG
As to the kind of experiment: Biolayer interferometry (Octet); biotinylated antigen on streptavidin tip, 20 nM IgG in solution.

In another assay the target is T6, cynomolgus macaque C5a (cynomolgus macaque).
T6 construct: also called recombinant cynomolgus macaque C5a; cynomolgus C5a
T6 chain: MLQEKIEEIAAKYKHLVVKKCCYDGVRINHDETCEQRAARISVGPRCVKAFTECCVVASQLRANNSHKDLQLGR
As to the kind of experiment: SPR (Biacore); antibody captured by anti-human Fc on CM5 chip, recombinant cynomolgus C5a 0.6-5.9 nM as analyte; 1:1 Langmuir fit. Here is the method:
The surface was regenerated with 20 mM HCl, 0.02% surfactant P20 (Biacore) after each cycle to remove bound antibody and antigen. The data was evaluated using Biacore BlAevaluation software using a 1:1 Langmuir Model Fit (Rmax:Global Fit; R1:Local Fit). These experiments were for screening purposes with a minimal number of analyte concentrations (3 to 4) with 1 duplicate.
(In general: SPR reads the build-up and loss of mass on a sensor chip optically.)

The target of the next assay is T7, mouse C5a (mouse, UniProt P06684 683-755).
T7 construct: also called recombinant mouse C5a
T7 sequence: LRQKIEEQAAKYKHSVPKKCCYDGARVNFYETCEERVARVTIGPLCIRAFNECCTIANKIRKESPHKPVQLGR
As to the kind of experiment: SPR (Biacore); antibody captured by anti-human Fc on CM5 chip, recombinant mouse C5a 0.6-5.9 nM as analyte; 1:1 Langmuir fit; footnote: only an approximation of the KD. As to the method:
The surface was regenerated with 20 mM HCl, 0.02% P20 after each cycle to remove bound antibody and antigen. The data were evaluated using Biacore BlAevaluation software using a 1:1 Langmuir Model Fit (Rmax:Global Fit; R1:Local Fit).

T3 sequence (P01031 19-673 limits assumed, one chain of several): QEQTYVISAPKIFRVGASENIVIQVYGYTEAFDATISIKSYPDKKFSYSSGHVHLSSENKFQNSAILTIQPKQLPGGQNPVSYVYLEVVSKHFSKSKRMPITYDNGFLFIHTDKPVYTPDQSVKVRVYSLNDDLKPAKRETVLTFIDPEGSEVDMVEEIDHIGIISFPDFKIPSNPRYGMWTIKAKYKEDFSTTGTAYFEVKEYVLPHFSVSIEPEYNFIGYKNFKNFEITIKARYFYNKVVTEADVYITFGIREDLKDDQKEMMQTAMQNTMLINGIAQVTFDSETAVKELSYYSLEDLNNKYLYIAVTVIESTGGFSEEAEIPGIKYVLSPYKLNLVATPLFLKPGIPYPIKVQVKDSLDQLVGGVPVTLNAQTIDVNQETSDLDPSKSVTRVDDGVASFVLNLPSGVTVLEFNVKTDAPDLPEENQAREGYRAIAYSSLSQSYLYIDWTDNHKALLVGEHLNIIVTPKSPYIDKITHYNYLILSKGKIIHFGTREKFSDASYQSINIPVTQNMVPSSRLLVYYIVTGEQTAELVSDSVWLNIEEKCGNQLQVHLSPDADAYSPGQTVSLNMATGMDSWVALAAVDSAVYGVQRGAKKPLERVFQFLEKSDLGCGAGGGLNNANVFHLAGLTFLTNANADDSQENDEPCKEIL

B1: 5an101ME (antibody, V domains shown)
VH: EVQLQQSGPELVKPGSSVKISCKASGYTFTDYSMDWVKQSHGKSLEWIGAINPNSGGTNYSQKFKDKATLTVDKSSSTAYMELRSLTSEDSAVYYCASSGSYDGYYAMDYWGQGTSVTVSS
VL: DIVMTQSPASLAVSLGQRATISCRASESVDSYGNSFMHWYQQKPGQPPKLLIYRASNLESGIPARFSGSGSRTDFTLTINPVEADDVATYYCQQSNEDPYTFGGGTKLEIKR
notes: Full length mouse IgG2a
With B1, the binding result is given as “binds” with human C5a; “no binding (tested: 20 nM)” with human C3a; “no binding (tested: 20 nM)” in the assay with human full-length C5; “no binding (tested: 20 nM)” with human C4a; “binds” in the assay with human C5a desarg.

B2: 5an180ME (antibody, V domains shown)
VH: EVQLQQPGAEIVRPGASVKLSCRASGYTFTDYWMNWVKQRPGQGLEWIGTIDPSDSYTIYNQKFKGKATLTVDTSSTTAYIQLSSLTSEDSAVYFCARGEDYDVSSYTMDYWGQGTSVTVSS
VL: DIQMTQSPASLSASVGETVTITCRASENIYSYLAWYQQKQGKSPQLLVYNAKTLAEGVPSRFSGSGSGTQFSLKINSLQPEDFGSYYCQHHYGTPYTFGGGTKLEIKR
notes: Full length mouse IgG2a
In the case of B2, the binding result with human C5a is “binds”; with human C3a, “no binding (tested: 20 nM)”; with human full-length C5 it was “no binding (tested: 20 nM)”; with human C4a, “no binding (tested: 20 nM)”; with human C5a desarg it was “binds”.

B3: BNJ383 (antibody, human IgG2, kappa, V domains shown)
VH: QVQLVQSGAEVKKPGASVKVSCKASGYTFTDYSMDWVRQAPGQGLEWMGAIHLNTGYTNYNQKFKGRVTMTRDTSTSTVYMELSSLRSEDTAVYYCARGFYDGYSPMDYWGQGTTVTVSS
VL: DIQMTQSPSSLSASVGDRVTITCRASESVDSYGNSFMHWYQQKPGKAPKLLIYRASNLESGVPSRFSGSGSGTDFTLTISSLQPEDFATYYCQQSNEDPYTFGGGTKVEIKR
notes: Humanized bivalent full length IgG; also called anti-hC5a antibody
One may read the Kd as the free concentration of one partner at which half of the binding sites on the other are occupied at equilibrium, for simple one-to-one binding. As to B3, the Kd with cynomolgus macaque C5a was 3.3 nM; with mouse C5a, around 0.379 nM.
